Where a chain is given by its changes, count along the chain named.
B1: A161 (antibody, IgG1, V domains shown)
VH: QVQLVQSGAEVKKPGASVKVSCKASGFDIQDTYMHWVRQRPGQGLEWMGRIDPASGHTKYDPKFQVRVTITTDTSTSTVYLELSSLRSEDTAVYYCARSGGLPDVWGQGTTVTVSS
VL: EIVLTQSPGTLSLSPGERATLSCRASSSVSYMYWYQQKPGQAPRLLIYATSNLASGIPDRFSGSGSGTDFTLTISRLEPEDFAVYYCQQWKGNPRTFGGGTKLEIK
B2: A162 (antibody, IgG1, V domains shown)
VH: B1 VH with L81M
VL: B1 VL
B3: A163 (antibody, IgG1, V domains shown)
VH: B1 VH with V79A, L81M
VL: B1 VL
B4: A164 (antibody, IgG1, V domains shown)
VH: B1 VH with I70M, V79A
VL: B1 VL
B5: A165 (antibody, IgG1, V domains shown)
VH: B1 VH with R40A, M48I, V68A, V79A
VL: B1 VL with L45P, L46W, K91E
B6: A166 (antibody, IgG1, V domains shown)
VH: B1 VH with R38K, M48I, I70M, V79A
VL: B1 VL with L45P, L46W, K91E
B7: A167 (antibody, IgG1, V domains shown)
VH: B1 VH with R38K, M48I, T72R, V79A
VL: B1 VL with L45P, L46W, K91E
B8: A168 (antibody, IgG1, V domains shown)
VH: B1 VH with R38K, M48I, V68A, I70M, T72R, V79A
VL: B1 VL with L45P, L46W, K91E
B9: A169 (antibody, IgG1, V domains shown)
VH: B1 VH with R38K, R40A, T58I, V66G, I70M, T72R, L81M, V105W
VL: B1 VL with L45P, L46W, K91E
B10: A170 (antibody, IgG1, V domains shown)
VH: B1 VH with R40A, T58I, V66G, I70M, T72R, V79A, L81M, V105W
VL: B1 VL with L45P, L46W, K91E
B11: A171 (antibody, IgG1, V domains shown)
VH: B1 VH with R40A, T58I, V66G, V68A, L81M, V105W
VL: B1 VL with L45P, L46W, K91E
B12: A172 (antibody, IgG1, V domains shown)
VH: B1 VH with R40A, T58I, V66G, V68A, I70M, T72R, L81M, V105W
VL: B1 VL with L45P, L46W, K91E
B13: A173 (antibody, IgG1, V domains shown)
VH: B1 VH with R38K, R40A, D52E, T58I, V66G, V68A, I70M, T72R, L81M, V105W
VL: B1 VL with L45P, L46W, K91E
B14: A174 (antibody, IgG1, V domains shown)
VH: B1 VH with R40A, D52E, T58I, V66G, V68A, I70M, T72R, V79A, L81M, V105W
VL: B1 VL with L45P, L46W, K91E
B15: A175 (antibody, IgG1, V domains shown)
VH: B1 VH with R38K, R40A, T58I, V66G, I70M, T72R, L81M, V105W
VL: B1 VL with L45P, K91E
B16: A176 (antibody, IgG1, V domains shown)
VH: B1 VH with R40A, T58I, V66G, I70M, T72R, V79A, L81M, V105W
VL: B1 VL with L45P, K91E
B17: A177 (antibody, IgG1, V domains shown)
VH: B1 VH with R40A, T58I, V66G, V68A, L81M, V105W
VL: B1 VL with L45P, K91E
B18: A178 (antibody, IgG1, V domains shown)
VH: B1 VH with R40A, T58I, V66G, V68A, I70M, T72R, L81M, V105W
VL: B1 VL with L45P, K91E
B19: A179 (antibody, IgG1, V domains shown)
VH: B1 VH with R38K, R40A, D52E, T58I, V66G, V68A, I70M, T72R, L81M, V105W
VL: B1 VL with L45P, K91E

Molecular target: T1, human TL1A (human, UniProt O95150 72-251, limits assumed)
T1 construct: also called tumor necrosis factor-like cytokine 1A; TNFSF15
T1 sequence (looked up): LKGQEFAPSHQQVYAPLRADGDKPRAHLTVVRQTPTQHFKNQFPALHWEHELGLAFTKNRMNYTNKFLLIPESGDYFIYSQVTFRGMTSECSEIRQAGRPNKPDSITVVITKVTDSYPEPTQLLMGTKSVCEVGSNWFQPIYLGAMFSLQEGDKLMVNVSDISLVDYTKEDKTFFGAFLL
Assay: ELISA titration on plate-coated human TL1A, unpurified culture supernatant

Kd [pM]	Binder
72	B1
75	B2
51	B3
58	B4
59	B5
57	B6
42	B7
62	B8
47	B9
49	B10
50	B11
40	B12
40	B13
43	B14
45	B15
48	B16
52	B17
43	B18
79	B19

Source: US20260216326A1 (PROMETHEUS BIOSCIENCES, published 2026)
